Reference: the RNAGym collection of RNA variant scans (doi:10.1073/pnas.2313332121)

B1: TPR t1 (parent)
chain: GACCAAUCUGCCCUCAGAGCUCGAGAACAUCUUCGGAUGCAGAGGAGGCAGGCUUCGGUGGCGCGAUAGCGCCAACGUCCUCAACCUCCAAUGCAUCCCACCACAUGAUGAUGCCUGAAGAGCCUUGGUUUUUUG

Variants of: B1
Test: polymerase ribozyme fitness, log enrichment relative to wild type (log ratio); higher = more active; in vitro selection for triplet polymerase activity
Outline: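 Mutant libraries for each subunit of a heterodimeric triplet polymerase ribozyme were made by PCR and then transcribed. Each library underwent one round of in vitro selection in triplicate: annealing with a biotinylated primer, the partner subunit and triplets, frozen incubation at −7 °C, gel excision of extended constructs, streptavidin-bead capture and RT-PCR. Input and output libraries were Illumina-sequenced, and only genotypes with ≥10 input reads and ≥1 read per output were kept. Fitness is the logarithm, base 2, of genotype enrichment over wild-type enrichment, computed from inverse-variance-weighted replicate averages.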

| Variant | polymerase ribozyme fitness (log ratio) |
| --- | --- |
| C70A C88A C89U | -5.58 |
| C70A C89G | -3.96 |
| C70A C89G U125A | -4.36 |
| C70A C97U | -2.23 |
| C70A C98U U130G | -2.6 |
| C70A C102U | -4.59 |
| C70A C102U U112C | -2.21 |
| C70A C104A U109A G128C | -7.62 |
| C70A C104U | -1.79 |
| C70A G71U A75G C99A A121U G127U | -4.8 |
| C70A G93A U116C C123A | -5.19 |
| C70A G110A | -3.53 |
| C70A G113C | -3.23 |
| C70A G117C | -3.77 |
| C70A G120C | -0.593 |
| C70A G122U | -1.64 |
| C70A G127C | -2.17 |
| C70A G128A | -3.64 |
| C70A U81A G93A | -3.44 |
| C70A U81C | -2.67 |
| C70A U87C C102A | -3.97 |
| C70A U106C U129A | -2.95 |
| C70A U106G | -4.07 |
| C70A U112A | -0.662 |

| Variant | polymerase ribozyme fitness (log ratio) |
| --- | --- |
| C70A U112C | 0.318 |
| C70A U129A | -3.27 |
| C70A U129C | -2.68 |
| C70A U130A | -2.04 |
| C70A U132A | -0.853 |
| C70G A74G | -4.02 |
| C70G A75C C115A | -1.54 |
| C70G A84U | -3.25 |
| C70G A100U | -4.02 |
| C70G A105U G113A | -6.59 |
| C70G A119G | -1.37 |
| C70G A121G U131A | -0.0344 |
| C70G C72U C123A U129G U133G | -2.93 |
| C70G C73U | -2.63 |
| C70G C79A | -4.41 |
| C70G C85U A90U C104A C115A | -6.79 |
| C70G C86A | -4.89 |
| C70G C97U U116A G117A | -5.25 |
| C70G C99A | -7.95 |
| C70G C99A G113A | -6.35 |
| C70G C114U | -4.81 |
| C70G G117A | -3.54 |
| C70G G120C | -1.8 |
| C70G G127C | -3.14 |

| Variant | polymerase ribozyme fitness (log ratio) |
| --- | --- |
| C70G U78A C86A | -3.32 |
| C70G U78G | -2.07 |
| C70G U87C | -4.17 |
| C70G U96A | -4.79 |
| C70G U106C | -2.51 |
| C70G U112C C114A | -4.91 |
| C70G U125A | -2.85 |
| C70G U125G | -4.85 |
| C70G U131A | -2 |
| C70G U132G U133A | -2.52 |
| C70U A74C C101U | -0.934 |
| C70U A74G G120C | -1.57 |
| C70U A75U G77U A83U U106A C114U C123G U133G | -6.34 |
| C70U A95U A111U G120U | -6.23 |
| C70U A103G | -4.3 |
| C70U A108U | -5.38 |
| C70U A111C U116G A121C | -4.3 |
| C70U A119G | 0.891 |
| C70U C72A A103U A108G G110A | -6.1 |
| C70U C72G G77C | -2.87 |
| C70U C76A A121U U125G | -0.883 |
| C70U C79A | -2.03 |
| C70U C79G | -2.8 |
| C70U C79U | 0.361 |

| Variant | polymerase ribozyme fitness (log ratio) |
| --- | --- |
| C70U C79U C124U | 1 |
| C70U C82A | -1.09 |
| C70U C82A C85U | -1.4 |
| C70U C82A C123U G128A | -1.76 |
| C70U C82G A118G | -1.41 |
| C70U C97A | -4.6 |
| C70U C98U U129G | -2.67 |
| C70U C99U | -3.35 |
| C70U C101U G117C | -5.37 |
| C70U C102A C124G | -1.09 |
| C70U C102G A121G | -5.14 |
| C70U C114U | -2.88 |
| C70U C115G U116C | -4.43 |
| C70U G71A U130C | -1.13 |
| C70U G71U | -0.437 |
| C70U G77A U81C | -1.19 |
| C70U G77U U78C A95U C123G | 0.382 |
| C70U G93C | -1.12 |
| C70U G93C C115U | -3.35 |
| C70U G110C | -4.32 |
| C70U G110U G120A U129G | -5.09 |
| C70U G113C | -3.06 |
| C70U G122A | -0.84 |
| C70U U78A A95U U112G U133A | -0.788 |

| Variant | polymerase ribozyme fitness (log ratio) |
| --- | --- |
| C70U U78A G120U G128A | -2.18 |
| C70U U81A C82G | -2.96 |
| C70U U87C U116A A121C | -2.16 |
| C70U U96A | -1.14 |
| C70U U109A | -4.47 |
| C70U U129C | -0.753 |
| C70U U130A | -1.04 |
| C70U U131G U133A | -0.369 |
| G71A A84U U112A U131A | -0.0045 |
| G71A A91G A121U | -0.169 |
| G71A A100U | -1.77 |
| G71A C79G | -3.16 |
| G71A C79U C98U | -1.99 |
| G71A C82G G117U | -3.41 |
| G71A C82U C101A | -0.823 |
| G71A C85G U126C | -2.15 |
| G71A C85U G128U U131A | -3.17 |
| G71A C89U | -0.978 |
| G71A C89U U126C | -1.9 |
| G71A C94G A108G C123A G135U | -4.8 |
| G71A C94U | -1.55 |
| G71A C98G | -6.1 |
| G71A C99G A100C C123A | -8.12 |
| G71A C101A | -2.55 |

| Variant | polymerase ribozyme fitness (log ratio) |
| --- | --- |
| G71A C101U | -0.59 |
| G71A C104A | -2.33 |
| G71A C104U | -0.49 |
| G71A C114U | -2.27 |
| G71A G77C C101G | -2.79 |
| G71A G110C | -4.27 |
| G71A G117C | -3.15 |
| G71A G120C | 0.139 |
| G71A G120C G127A U131G | 1.2 |
| G71A G122A | -1.18 |
| G71A G127C | -1.54 |
| G71A G135U | -1.5 |
| G71A U78A | -0.645 |
| G71A U81C C115U | -3.59 |
| G71A U81G A83U C124A | -7.19 |
| G71A U81G G113A C123U | -6.93 |
| G71A U87G | -0.439 |
| G71A U92A C94U C115G | -4.8 |
| G71A U92C | -2.39 |
| G71A U92G | -3.98 |
| G71A U96G C123A | -0.833 |
| G71A U106C | -1.36 |
| G71A U112C | 0.03 |
| G71A U112G | -1.07 |

| Variant | polymerase ribozyme fitness (log ratio) |
| --- | --- |
| G71A U116C G117U | -2.83 |
| G71C A74G A91C G93C C99G A105U A111G | -6.99 |
| G71C A83U | -1.19 |
| G71C A84G U133A | -3.86 |
| G71C A84U | -2.77 |
| G71C A90C | -3.67 |
| G71C A90G | -0.94 |
| G71C A103U C115A G117A | -5.57 |
| G71C A121U | 0.296 |
| G71C C79A | -1.86 |
| G71C C79A C85G G120A | -3.28 |
| G71C C88G | -1.88 |
| G71C C89U U126C | -2.71 |
| G71C C98U | -1.75 |
| G71C G93A | -1.77 |
| G71C G93C G127A | -2.95 |
| G71C G117C | -4.7 |
| G71C G120A | -0.0968 |
| G71C G127C | -2.16 |
| G71C U78A A118G | -0.642 |
| G71C U81C A90G | -2.36 |
| G71C U87C | -1.45 |
| G71C U92C | -2.76 |
